Laboratory results published in US6013453, “Binding proteins for recognition of DNA” (Medical Research Council).

Molecular target: anti-BCR-ABL 1A-2A-3B/VP16 fusion (synthetic construct)
Assay: cell_activity; C3H10T1/2 cells
Source text: Having established DNA discrimination in vitro, the inventors wished to test whether the anti-BCR-ABL peptide was capable of site-specific DNA-binding in vivo. The peptide was fused to the VP16 activation domain from herpes simplex virus (Fields 1993 Methods 5, 116–124) and used in transient transfection assays (FIG. 9) to drive production of a CAT (chloramphenicol acetyl transferase) reporter gene from a binding site upstream of the TATA box (Gorman et al., Mol. Cell. Biol. 2, 1044–1051). In detail the experiment was performed thus: reporter plasmids pMCAT6BA, pMCAT6A, and pMCAT6B, were constructed by inserting 6 copies of the p190^BCR-ABL target site ([…], SEQ ID No. 121), the c-ABL second exon-intron junction sequence ([…], Seq ID No. 122), or the BCR first exon-intron junction sequence ([…] Seq ID No. 123) respectively, into pMCAT3 (Luscher et al., 1989 Genes Dev. 3, 1507–1517). The anti-BCR-ABL/VP16 expression vector was generated by inserting the in-frame fusion between the activation domain of herpes simplex virus VP16 (Fields 1993) and the Zn finger peptide in the pEF-BOS vector (Mizushima & Shigezaku 1990 Nucl. Acids Res. 18, 5322). C3H10T1/2 cells were transiently co-transfected with […] of reporter plasmid and […] of expression vector. […]

B1: p190 BCR-ABL site x6 reporter pMCAT6BA (dsDNA)
DNA 1: CGCAGAAGCC
DNA 2: GGCTTCTGCG
B1 showed an activity of roughly 30 fold CAT activation.
